B1: citrine- or cerulean-tagged per^WT (FRET construct, HEK293T) (natural protein, human, UniProt P23942 1-346, looked up)
chain: MALLKVKFDQKKRVKLAQGLWLMNWFSVLAGIIIFSLGLFLKIELRKRSDVMNNSESHFVPNSLIGMGVLSCVFNSLAGKICYDALDPAKYARWKPWLKPYLAICVLFNIILFLVALCCFLLRGSLENTLGQGLKNGMKYYRDTDTPGRCFMKKTIDMLQIEFKCCGNNGFRDWFEIQWISNRYLDFSSKEVKDRIKSNVDGRYLVDGVPFSCCNPSSPRPCIQYQITNNSAHYSYDHQTEELNLWVRGCRAALLSYYSSLMNSMGVVTLLIWLFEVTITIGLRYLQTSLDGVSNPEESESESQGWLLERSVPETWKAFLESVKKLGKGNQVEAEGADAGQAPEAG
notes: peripherin-2 (PRPH2), human, wild type; in the 'per^WT only' FRET pair the two copies differ in the fluorophore; also called per^WT only; source: HEK293T, transiently co-transfected, in living cells
B2: C-terminally myc- or flag-tagged per^WT (SDGC construct) (natural protein, human, UniProt P23942 1-346, looked up)
chain: B1 chain
notes: peripherin-2 (PRPH2), human, wild type; also called per^WT only; source: HEK293T, transiently transfected, in lysate (0.5% Triton X-100)
B3: citrine- or cerulean-tagged per^C214S (FRET construct, HEK293T) (natural protein, human, UniProt P23942 1-346, looked up)
chain: B1 chain with C214S
notes: peripherin-2 (PRPH2), human, adRP-linked mutant C214S; in the 'per^C214S only' FRET pair the two copies differ in the fluorophore; also called per^C214S only; per^MT; source: HEK293T, transiently co-transfected, in living cells
B4: C-terminally myc- or flag-tagged per^C214S (SDGC construct) (natural protein, human, UniProt P23942 1-346, looked up)
chain: B1 chain with C214S
notes: peripherin-2 (PRPH2), human, adRP-linked mutant C214S; also called per^C214S only; per^MT; source: HEK293T, transiently transfected, in lysate (0.5% Triton X-100)
B5: citrine- or cerulean-tagged per^P210L (FRET construct, HEK293T) (natural protein, human, UniProt P23942 1-346, looked up)
chain: B1 chain with P210L
notes: peripherin-2 (PRPH2), human, adRP-linked mutant P210L; in the 'per^P210L only' FRET pair the two copies differ in the fluorophore; also called per^P210L only; per^MT; source: HEK293T, transiently co-transfected, in living cells

Data set [1] concerns the target T1, citrine- or cerulean-tagged Rom-1 (FRET construct, HEK293T) (human, UniProt Q03395 1-351).
T1 construct: Rom-1, homolog of peripherin-2; 'the single human peripherin-2 and Rom-1 transgenes'; source: HEK293T, transiently co-transfected, in living cells
As to the kind of experiment: FRET or BRET; 3 cube FRET in living co-transfected HEK293T cells; FRET imaging solution (140 mM NaCl, 5 mM KCl, 2 mM CaCl2, 1 mM MgCl2, 10 mM glucose, 10 mM HEPES, pH 7.4), RT; EAmax from the binding curve of apparent FRET efficiency against the cerulean/citrine molar ratio. Conditions: partners not purified.

Data set [2] deals with the molecule itself. The data set is described as above.
Data set [3] deals with the molecule itself. In words: sucrose density gradient centrifugation; lysate of transfected HEK293T cells (0.5% Triton X-100, 150 mM NaCl, 2 mM CaCl2) on a 5-20% sucrose gradient with 0.1% Triton X-100 and 10 mM N-ethylmaleimide, 46,700 rpm, 2 h, 4 °C; 11 fractions immunoblotted with myc- or flag-specific antibodies under non-reducing conditions; DNA standards for size.
Data set [4] concerns the target B1. In words: FRET or BRET; 3 cube FRET in living co-transfected HEK293T cells; FRET imaging solution (140 mM NaCl, 5 mM KCl, 2 mM CaCl2, 1 mM MgCl2, 10 mM glucose, 10 mM HEPES, pH 7.4), RT; EAmax from the binding curve of apparent FRET efficiency against the cerulean/citrine molar ratio. Conditions: partners not purified.

Residue numbers refer to the chain shown, from its start. Names may count otherwise. “And” between values parts separate entries of the source, which are not always exact repeats. Equal values may be shown once.

T1 sequence (Q03395 whole entry): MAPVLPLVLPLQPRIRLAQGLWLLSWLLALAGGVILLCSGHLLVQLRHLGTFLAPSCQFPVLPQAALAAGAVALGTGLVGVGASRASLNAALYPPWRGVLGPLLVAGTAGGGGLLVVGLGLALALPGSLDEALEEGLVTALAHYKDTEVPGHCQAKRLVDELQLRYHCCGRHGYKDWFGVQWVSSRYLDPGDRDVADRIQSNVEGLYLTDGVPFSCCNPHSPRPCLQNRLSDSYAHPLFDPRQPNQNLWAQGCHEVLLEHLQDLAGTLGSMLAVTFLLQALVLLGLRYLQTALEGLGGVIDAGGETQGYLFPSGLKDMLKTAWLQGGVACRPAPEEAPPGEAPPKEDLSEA

On to B1, for which the “EAmax (maximal FRET efficiency)” value in data set [1] came out at 15.6%; in data set [2], 34.2%.
For the molecule B2, in data set [3], the “stoichiometry N” value is 4 and 8.
Regarding B3, the entries for the “EAmax (maximal FRET efficiency)” value in data set [1], in data set [4] and in data set [2] were 6.32%, 8.58% and 26.5%, respectively.
For the molecule B4, the “stoichiometry N” value in data set [3] came out at 2.
In the case of B5, the “EAmax (maximal FRET efficiency)” value is 6.58% in data set [1], 9.44% in data set [4] and 30.7% in data set [2].

For the origin of these results see PMC5443838, “Peripherin-2 and Rom-1 have opposing effects on rod outer segment targeting of retinitis pigmentosa-linked peripherin-2 mutants” (Scientific Reports, 2017).
